Experimental data as given in the PETadex activity labels (doi:10.1038/s41586-022-04599-z).
Residue numbers refer to the chain shown, from its start.

B1: unnamed (protein)
chain: QTNPYARGPNPTAASLEASAGPFTVRSFTVSRPSGYGAGTVYYPTNAGGTVGAIAIVPGYTARQSSIKWWGPRLASHGFVVITIDTNSTFDYPSSRSSQQMAALRQVASLNGDSSSPIYGKVDTARMGVMGHSMGGGASLRSAANNPSLKAAIPQAPWDSQTNFSSVTVPTLIFACENDSIAPVNSHALPIYDSMSRNAKQFLEINGGSHSCANSGNSNQALIGKKGVAWMKRFMDNDTRYSTFACENPNSTAVSDFRTANCSLEHHHHHH
B2: unnamed (protein)
chain: QTNPYARGPNPTAASLEASAGPFTVRSFTVSRPSGYGAGTVYYPTNAGGTVGAIAIVPGYTARQSSIKWWGPRLASHGFVVITIDTNSTLDQPESRSSQQMAALRQVASLNGTSSSPIYGKVDTARMGVMGWSMGGGGSLISAANNPSLKAAAPQAPWHSSTNFSSVTVPTLIFACENDSIAPVNSSALPIYDSMSRNAKQFLEINGGSHSCANSGNSNQALIGKKGVAWMKRFMDNDTRYSTFACENPNSTAVSDFRTANCSLEHHHHHH
B3: unnamed (protein)
chain: B2 chain with E94S, H159D, A253R
B4: unnamed (protein)
chain: B2 chain with R197Q, N206K
B5: unnamed (protein)
chain: SNPYQRGPNPTRSALTADGPFSVATYTVSRLSVSGFGGGVIYYPTGTSLTFGGIAMSPGYTADASSLAWLGRRLASHGFVVLVINTNSRFDYPDSRASQLSAALNYLRTSSPSAVRARLDANRLAVAGHSMGGGGTLRIAEQNPSLKAAVPLTPWHTDKTFNTSVPVLIVGAEADTVAPVSQHAIPFYQNLPSTTPKVYVELDNASHFAPNSNNAAISVYTISWMKLWVDNDTRYRQFLCNVNDPALSDFRTNNRHCQLEHHHHHH
B6: unnamed (protein)
chain: MSNPYQRGPNPTRSALTADGPFSVATYTVSRLSVSGFGGGVIYYPTGTSLTFGGIAMSPGYTADASSLAWLGRRLASHGFVVLVINTNSRFDYPDSRASQLSAALNYLRTSSPSAVRARLDANRLAVAGHSMGGGGTLRIAEQNPSLKAAVPLTPWHTDKTFNTSVPVLIVGAEADTVAPVSQHAIPFYQNLPSTTPKVYVELCNASHIAPMSNNAAISVYTISWMKLWVDNDTRYRQFLCNVNDPALCDFRTNNRHCQLEHHHHHH

Substrate: PET
Test: Proxy for plastic degradation [Released monomer concentration (HPLC/LC-MS) (MHET+TPA)]
Conditions: pH 6.5; 30 °C; part of the chain shown

| Protein | Proxy for plastic degradation |
| --- | --- |
| B1 | 0.15 mM |
| B2 | 0.6 mM |
| B3 | 0.1 mM |
| B4 | 0.7 mM |

Same assay, conditions: pH 6.5; 40 °C; part of the chain shown

| Protein | Proxy for plastic degradation |
| --- | --- |
| B1 | 0 mM |
| B2 | 0.5 mM |
| B3 | 0 mM |
| B4 | 1 mM |

Same assay, conditions: pH 7; 30 °C; part of the chain shown

| Protein | Proxy for plastic degradation |
| --- | --- |
| B1 | 0.15 mM |
| B2 | 1.2 mM |
| B3 | 0.15 mM |
| B4 | 1.5 mM |

Same assay, conditions: pH 7; 40 °C; part of the chain shown

| Protein | Proxy for plastic degradation |
| --- | --- |
| B1 | 0.3 mM |
| B2 | 9 mM |
| B3 | 0 mM |
| B4 | 12 mM |

Same assay, conditions: pH 7.5; 30 °C; part of the chain shown

| Protein | Proxy for plastic degradation |
| --- | --- |
| B1 | 0.2 mM |
| B2 | 2.3 mM |
| B3 | 0.25 mM |
| B4 | 2.9 mM |

Same assay, conditions: pH 7.5; 40 °C; part of the chain shown

| Protein | Proxy for plastic degradation |
| --- | --- |
| B1 | 1 mM |
| B2 | 12 mM |
| B3 | 0 mM |
| B4 | 19 mM |

Same assay, conditions: pH 8; 30 °C; part of the chain shown

| Protein | Proxy for plastic degradation |
| --- | --- |
| B1 | 0.15 mM |
| B2 | 2.9 mM |
| B3 | 0.6 mM |
| B4 | 3.6 mM |

Same assay, conditions: pH 8; 40 °C; part of the chain shown

| Protein | Proxy for plastic degradation |
| --- | --- |
| B1 | 2 mM |
| B2 | 13 mM |
| B3 | 0.2 mM |
| B4 | 32 mM |

Same assay, conditions: pH 8; 1 h; part of the chain shown

| Protein | Proxy for plastic degradation |
| --- | --- |
| B4 | 13.4 mM |

Same assay, conditions: pH 8; 2 h; part of the chain shown

| Protein | Proxy for plastic degradation |
| --- | --- |
| B4 | 31.1 mM |

Same assay, conditions: pH 8; 3 h; part of the chain shown

| Protein | Proxy for plastic degradation |
| --- | --- |
| B4 | 48.7 mM |

Same assay, conditions: pH 8; 4 h; part of the chain shown

| Protein | Proxy for plastic degradation |
| --- | --- |
| B4 | 66.7 mM |

Same assay, conditions: pH 8; 5 h; part of the chain shown

| Protein | Proxy for plastic degradation |
| --- | --- |
| B4 | 88 mM |

Same assay, conditions: pH 8; 6 h; part of the chain shown

| Protein | Proxy for plastic degradation |
| --- | --- |
| B4 | 109 mM |

Same assay, conditions: pH 8; 7 h; part of the chain shown

| Protein | Proxy for plastic degradation |
| --- | --- |
| B4 | 131 mM |

Same assay, conditions: pH 8; 8 h; part of the chain shown

| Protein | Proxy for plastic degradation |
| --- | --- |
| B4 | 148 mM |

Same assay, conditions: pH 8; 9 h; part of the chain shown

| Protein | Proxy for plastic degradation |
| --- | --- |
| B4 | 163 mM |

Same assay, conditions: pH 8; 10 h; part of the chain shown

| Protein | Proxy for plastic degradation |
| --- | --- |
| B4 | 175 mM |

Same assay, conditions: pH 8; 11 h; part of the chain shown

| Protein | Proxy for plastic degradation |
| --- | --- |
| B4 | 185 mM |

Same assay, conditions: pH 8; 12 h; part of the chain shown

| Protein | Proxy for plastic degradation |
| --- | --- |
| B4 | 195 mM |

Same assay, conditions: pH 8; 13 h; part of the chain shown

| Protein | Proxy for plastic degradation |
| --- | --- |
| B4 | 204 mM |

Same assay, conditions: pH 8; 13.5 h; part of the chain shown

| Protein | Proxy for plastic degradation |
| --- | --- |
| B4 | 208 mM |

Same assay, conditions: pH 6.5; 30 °C

| Protein | Proxy for plastic degradation |
| --- | --- |
| B5 | 0.17 mM |
| B6 | 0.18 mM |

Same assay, conditions: pH 6.5; 40 °C

| Protein | Proxy for plastic degradation |
| --- | --- |
| B5 | 0.2 mM |
| B6 | 0.8 mM |

Same assay, conditions: pH 7; 30 °C

| Protein | Proxy for plastic degradation |
| --- | --- |
| B5 | 0.2 mM |
| B6 | 0.23 mM |

Same assay, conditions: pH 7; 40 °C

| Protein | Proxy for plastic degradation |
| --- | --- |
| B5 | 0.4 mM |
| B6 | 2 mM |

Same assay, conditions: pH 7.5; 30 °C

| Protein | Proxy for plastic degradation |
| --- | --- |
| B5 | 0.22 mM |
| B6 | 0.23 mM |

Same assay, conditions: pH 7.5; 40 °C

| Protein | Proxy for plastic degradation |
| --- | --- |
| B5 | 1.9 mM |
| B6 | 3 mM |

Same assay, conditions: pH 8; 30 °C

| Protein | Proxy for plastic degradation |
| --- | --- |
| B5 | 0.25 mM |
| B6 | 0.37 mM |

Same assay, conditions: pH 8; 40 °C

| Protein | Proxy for plastic degradation |
| --- | --- |
| B5 | 2.3 mM |
| B6 | 4 mM |
